The target in data set [1] is TwinStrep-CcSir2 protein (TwinStrep-tag fused to the N-terminus of His6-CcSir2) (Caballeronia cordobensis). Description: co-elution from a Heparin column with SDS-PAGE densitometry.
Data set [2] deals with T1, GsSir2;GsAgo (Geobacter sulfurreducens Caccavo (ATCC …, UniProt Q74DF6;Q74DF5 1-587;1-473, |)). Nature of the data set: EMSA. Background: Mobility shift assays separate free from complexed probe on a gel.
The target in data set [3] is T2, GsSir2(D230A);GsAgo (Geobacter sulfurreducens Caccavo (ATCC …, UniProt Q74DF6;Q74DF5 1-587;1-473, D230A|)). Description: EMSA.
Data set [4] has as its target T1, GsSir2;GsAgo. Nature of the data set: EMSA. The source holds these as a separate data set.
The target of data set [5] is T2, GsSir2(D230A);GsAgo. Nature of the data set: EMSA. The source holds these as a separate data set.
Data set [6] has as its target T1, GsSir2;GsAgo. Description: EMSA. The source holds these as a separate data set.
A further data set addresses GsSir2APAZ;GsAgo (Geobacter sulfurreducens Caccavo (ATCC …, UniProt Q74DF6;Q74DF5 1-587;1-473, R440E;R442E;R517E;R525E;R528E;R531E|)). Description: EMSA.

Where two headings read alike, the source gives them in different places.

What is called stoichiometry N is a count of units in the complex or per binding partner. Usually Kd stands for a measure of binding affinity in units of concentration. Higher therefore signals lower affinity.

Turning to “CcAgo protein (short pAgo of the CcSir2/Ago system) (natural protein)”, the stoichiometry N in data set [1] is 1 Sir2:Ago. AUAAUGGUUUCUUAGACGUCGUUUUAGAGCUGUGUUGUUUCG (ssRNA) [ssRNA (TF-A)] displayed a Kd in the data set with GsSir2;GsAgo [2] of 0.042 ± 0.015 nM.

B1: RNA/DNA heteroduplex (TF-A/MZ-949) (DNA:RNA)
RNA: AUAAUGGUUUCUUAGACGUCGUUUUAGAGCUGUGUUGUUUCG
DNA: CGAAACAACACAGCTCTAAAACGACGTCTAAGAAACCATTAT
In turn, B1 showed a Kd with GsSir2;GsAgo [2] of 4.31 ± 0.37 nM.

B2: dsRNA (TF-A/MZ-1185) (dsRNA)
RNA 1: B1 RNA
RNA 2: CGAAACAACACAGCUCUAAAACGACGUCUAAGAAACCAUUAU
B2 yielded a Kd in the data set with GsSir2;GsAgo [2] of 73 ± 29 nM.

B3: gRNA TF-A + target ssDNA MZ-949 (DNA:RNA)
RNA: B1 RNA
DNA: B1 DNA
modifications: 5'-phosphate on guide
Consider B3, for which the Kd with GsSir2(D230A);GsAgo [3] came out at 0.038 ± 0.013 nM; with GsSir2;GsAgo [4], 0.02 ± 0.008 nM; with GsSir2(D230A);GsAgo [5], 0.14 ± 0.057 nM; with GsSir2;GsAgo [6], 0.079 ± 0.007 nM. In the data set with GsSir2APAZ;GsAgo, the binding result is recorded as “no binding”.

B4: gRNA TF-A + nsp-ssDNA MZ-589 (mixed)
RNA: B1 RNA
DNA: GGAGATGGGAAGTCATTAGATGTAGAACTTGAATGGCAACGG
modifications: 5'-phosphate on guide
For B4, in the data set with GsSir2;GsAgo [4], binding was put at a Kd of 0.42 ± 0.231 nM.

B5: gRNA TF-A + target ssRNA MZ-1185 (dsRNA)
RNA 1: B1 RNA
RNA 2: B2 RNA 2
modifications: 5'-phosphate on guide
As for B5, the figures for the Kd in the data set with GsSir2;GsAgo [4] and with GsSir2;GsAgo [6] were 0.205 ± 0.058 nM and 0.567 ± 0.112 nM, respectively. Consider ATAATGGTTTCTTAGACGTCGTTTTAGAGCTGTGTTGTTTCG (ssDNA) [ssDNA (TK-49)], for which the Kd with GsSir2;GsAgo [2] is 0.033 ± 0.016 nM.

B6: dsDNA (TK-49/MZ-949) (dsDNA)
DNA 1: ATAATGGTTTCTTAGACGTCGTTTTAGAGCTGTGTTGTTTCG
DNA 2: B1 DNA
For the molecule B6, the Kd in the data set with GsSir2;GsAgo [2] worked out at 51 ± 20 nM.

As to ATAATGGTTTCTTAGACGTCGTTTTAGAGCTGTGTTGTTTCG (ssDNA, circularised by CircLigase II) [circular ssDNA (TK-49)], in the data set with GsSir2;GsAgo [2], the dissociation constant Kd came to 0.072 ± 0.018 nM.

B7: gDNA TK-49 + target ssDNA MZ-949 (dsDNA)
DNA 1: B6 DNA 1
DNA 2: B1 DNA
modifications: 5'-phosphate on guide
Regarding B7, binding in the data set with GsSir2;GsAgo [4] was characterised by a dissociation constant (Kd) of 0.022 ± 0.005 nM.

B8: gDNA TK-49 + target ssRNA MZ-1185 (DNA:RNA)
DNA: B6 DNA 1
RNA: B2 RNA 2
modifications: 5'-phosphate on guide
Molecule B8 registered a Kd with GsSir2;GsAgo [4] of 0.252 ± 0.114 nM.
